Experimental data: patent publication US8173604 (ALBERT EINSTEIN COLLEGE OF MEDICINE OF YESHIVA UNIVERSITY, dated 2012)
Where a chain is given by its changes, count along the chain named.

Columns and labels:
[1] = target: T1, insect cell-produced and purified GST-cyclin A/Cdk2 (kinase reactions, ~3 nM) (UniProt P20248 1-432; P24941 1-298); assay: kinase inhibition: purified proteins, ~3 nM GST-cyclin A/Cdk2, Rb-C phosphorylation, non-linear least squares (FIG. 7F)
[2] = target: T1, insect cell-produced and purified …; assay: cell-based or functional assay
[3] = target: cellular cyclin A (endogenous, U2OS cells; associated with Cdk2) (human, UniProt P20248 1-432); assay: cell-based or functional assay
[4] = target: T2, myc tagged cyclin A (expressed alone or cotransfected in 293T cells) (UniProt P20248 1-432); assay: cotransfection, IP-Western in 293T cells (FIG. 1A)
T2 construct: domain: full-length; also called myc-cyclin A; cyclin A alone; not shown: myc tag

[5] = target: T2, myc tagged cyclin A (expressed alone or …); assay: IP-Western with transfected 293T cell extracts (FIG. 1E)
[6] = target: T3, Skp1, Cul-1 and myc-Roc1 (SCF subunits co-expressed with flag-Skp2 in 293T cells) (UniProt P63208 1-163; Q13616 1-776; P62877 1-108); assay: co-expression in 293T cells, anti-flag IP-Western (FIG. 2A)
T3 construct: The three other subunits of the SCF complex, co-immunoprecipitated via the flag tag on Skp2; also called Skp1-Cul1-Roc1; SCF^Skp2Roc1 complex subunits; not shown: myc tag

[7] = target: Cdk2 alone (singly transfected 293T cell extract) (UniProt P24941 1-298); assay: GST pull-down with singly transfected 293T extracts (FIG. 4A)
[8] = target: T4, cyclin A 309-432 fragment (C-terminal cyclin-fold and the C-terminus) (UniProt P20248 309-432); assay: GST pull-down with transfected 293T extracts (FIG. 4C)
T4 construct: In transfected 293T cell extract; not shown: myc tag

[9] = target: cyclin D1/Cdk4 (transfected 293T cell extracts) (UniProt P24385 1-295; P11802 1-303); assay: GST pull-down with transfected 293T extracts (FIG. 4E)
[10] = target: myc-cyclin A/Cdk2 (293T cell extracts transfected with myc-cyclin A and Cdk2) (UniProt P20248 1-432; P24941 1-298); assay: GST pull-down with myc-cyclin A/Cdk2 transfected 293T extracts (FIG. 3C)

Sequence of cyclin D1/Cdk4 (transfected 293T cell extracts) (P24385 whole entry, chain 1 of 2): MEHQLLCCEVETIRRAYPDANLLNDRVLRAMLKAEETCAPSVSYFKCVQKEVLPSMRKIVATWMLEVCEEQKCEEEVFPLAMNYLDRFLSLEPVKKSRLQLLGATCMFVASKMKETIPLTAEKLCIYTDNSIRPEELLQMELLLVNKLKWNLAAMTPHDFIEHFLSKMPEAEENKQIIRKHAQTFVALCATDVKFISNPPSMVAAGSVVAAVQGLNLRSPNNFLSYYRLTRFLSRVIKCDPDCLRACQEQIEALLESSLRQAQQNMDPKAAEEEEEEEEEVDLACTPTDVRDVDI
Sequence of cyclin D1/Cdk4 (transfected 293T cell extracts) (P11802 whole entry, chain 2 of 2): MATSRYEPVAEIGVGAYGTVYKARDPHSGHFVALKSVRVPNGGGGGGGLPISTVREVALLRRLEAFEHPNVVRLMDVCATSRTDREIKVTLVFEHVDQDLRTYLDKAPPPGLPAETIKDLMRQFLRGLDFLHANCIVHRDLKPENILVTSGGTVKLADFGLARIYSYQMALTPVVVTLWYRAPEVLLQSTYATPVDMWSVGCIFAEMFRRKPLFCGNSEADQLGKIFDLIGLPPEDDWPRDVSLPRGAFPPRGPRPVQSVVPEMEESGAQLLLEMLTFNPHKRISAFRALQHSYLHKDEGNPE
T3 sequence (P63208 whole entry, chain 1 of 3): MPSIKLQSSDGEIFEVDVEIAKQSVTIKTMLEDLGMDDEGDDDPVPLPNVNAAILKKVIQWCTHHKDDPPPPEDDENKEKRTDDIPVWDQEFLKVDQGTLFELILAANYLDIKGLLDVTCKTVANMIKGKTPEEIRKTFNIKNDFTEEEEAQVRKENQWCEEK
T3 sequence (Q13616 whole entry, chain 2 of 3): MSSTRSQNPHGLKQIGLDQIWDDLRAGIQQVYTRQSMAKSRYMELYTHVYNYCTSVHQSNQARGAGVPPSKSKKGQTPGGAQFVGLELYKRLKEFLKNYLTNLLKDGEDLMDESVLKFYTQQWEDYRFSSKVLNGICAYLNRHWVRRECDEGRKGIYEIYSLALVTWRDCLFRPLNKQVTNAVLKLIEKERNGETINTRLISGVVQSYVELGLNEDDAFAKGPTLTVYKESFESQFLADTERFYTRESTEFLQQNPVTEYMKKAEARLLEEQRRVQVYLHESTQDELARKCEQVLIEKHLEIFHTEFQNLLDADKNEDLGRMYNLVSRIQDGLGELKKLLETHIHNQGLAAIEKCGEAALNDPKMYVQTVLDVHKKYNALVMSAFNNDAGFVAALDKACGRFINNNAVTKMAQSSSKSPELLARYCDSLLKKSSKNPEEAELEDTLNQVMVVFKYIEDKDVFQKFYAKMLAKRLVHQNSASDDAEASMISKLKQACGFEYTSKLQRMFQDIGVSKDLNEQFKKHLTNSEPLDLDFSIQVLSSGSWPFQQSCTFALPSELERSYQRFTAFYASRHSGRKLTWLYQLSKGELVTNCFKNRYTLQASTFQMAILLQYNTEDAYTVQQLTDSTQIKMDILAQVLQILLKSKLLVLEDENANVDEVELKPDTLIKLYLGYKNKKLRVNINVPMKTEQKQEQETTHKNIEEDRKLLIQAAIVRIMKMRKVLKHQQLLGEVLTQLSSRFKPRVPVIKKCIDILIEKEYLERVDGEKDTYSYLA
T3 sequence (P62877 whole entry, chain 3 of 3): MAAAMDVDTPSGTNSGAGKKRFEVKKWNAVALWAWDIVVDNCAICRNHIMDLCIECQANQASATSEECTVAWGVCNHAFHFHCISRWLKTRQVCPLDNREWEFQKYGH

B1: Skp2N (eluted, GST cleaved off by thrombin) (other)
chain: MHVFKTPGPADAMHRKHLQEIPDLSSNVATSFTWGWDSSKTSELLSGMGVSALEKEEPDSENIPQELLSNLGHPESPPRKRLKSKGSDKDFVIVRRPKLN
notes: also called eluted and GST cleaved Skp2N; Skp2 N-terminus
For B1, the Ki [1] was roughly 520 nM and the “Ki of p27 for cyclin A/Cdk2 kinase activity (Rb-C phosphorylation) in the presence of 80 nM of Skp2N” value [2] was roughly 80 nM.

B2: TAT-4060 peptide (HIV TAT domain fused to the 4060 peptide with a glycine linker) (peptide)
peptide: YGRKKRRQRRRGKTSELLSGMGVSALEKEE
B2 was tested, and the “IC50 of U2OS cell killing (MTS assay, 24 hours)” value [3] was 35 µM.

B3: TAT-LDL peptide (TAT fused to the E2F1-derived LDL peptide) (peptide)
peptide: YGRKKRRQRRRGPVKRRLDL
B3 was tested, and the “IC50 of U2OS cell killing (MTS assay, 24 hours)” value [3] was 7.5 µM and the “in vitro cyclin A/Cdk2 kinase activity towards GST-Rb-C” value [2] was 10 fold.

B4: Skp2NF (N-terminal fragment of Skp2 divided at residue 150) (other)
chain: MHVFKTPGPADAMHRKHLQEIPDLSSNVATSFTWGWDSSKTSELLSGMGVSALEKEEPDSENIPQELLSNLGHPESPPRKRLKSKGSDKDFVIVRRPKLNRENFPGVSWDSLPDELLLGIFSCLCLPELLKVSGVCKRWYRLASDESLWQ
notes: also called NF fragment
B4: binds [4].

B5: Skp2AAAA (full-length Skp2 with the four conserved residues of the 40-60 sequence mutated to alanine, flag tagged) (other)
chain: MHVFKTPGPADAMHRKHLQEIPDLSSNVATSFTWGWDSSKTSEAASGMGVAAAEKEEPDSENIPQELLSNLGHPESPPRKRLKSKGSDKDFVIVRRPKLNRENFPGVSWDSLPDELLLGIFSCLCLPELLKVSGVCKRWYRLASDESLWQTLDLTGKNLHPDVTGRLLSQGVIAFRCPRSFMDQPLAEHFSPFRVQDMDLSNSVIEVSTLHGILSQCSKLQNLSLELRLSDPIVNTLAKNSNLVRLNLPGCPGFPKFPLQTFLSSCPRLDELNLSWCFNFTEKHVQVAVAHVSETMTQLNLSGYRKNLQKSDLSTLVRRCPNLVHLDLSNSVMLKNDCFQEFSQLNYLQHLSLSRCYDIIPETLLELGEIPTLKTLQVFGIVPDGTLQLLKEALPHLQINCSHFTTIARPTIGNKKNQEIWGIKCRLTLQKPSCL
notes: also called Skp2AAAA mutant; flag tagged Skp2AAAA; not shown: flag tag
B5: no binding [5]; binds [6].

B6: Skp2LRR (C-terminal fragment of Skp2 divided at residue 150) (other)
chain: TLDLTGKNLHPDVTGRLLSQGVIAFRCPRSFMDQPLAEHFSPFRVQDMDLSNSVIEVSTLHGILSQCSKLQNLSLELRLSDPIVNTLAKNSNLVRLNLPGCPGFPKFPLQTFLSSCPRLDELNLSWCFNFTEKHVQVAVAHVSETMTQLNLSGYRKNLQKSDLSTLVRRCPNLVHLDLSNSVMLKNDCFQEFSQLNYLQHLSLSRCYDIIPETLLELGEIPTLKTLQVFGIVPDGTLQLLKEALPHLQINCSHFTTIARPTIGNKKNQEIWGIKCRLTLQKPSCL
notes: also called LRR fragment
B6: no binding [4].

B7: GST-Skp2N (Skp2 N-terminus cloned into pGEX-2T) (other)
chain: B1 chain
notes: not shown: glutathione S-transferase (GST) moiety of vector pGEX-2T, N-terminal fusion partner
B7: no binding [7]; no binding [8]; no binding [9].

B8: GST-Skp2N-AA45 (other)
chain: B1 chain with L44A, L45A
notes: as for B7
B8: no binding [10].

B9: GST-Skp2N-AAA53 (other)
chain: B1 chain with S51A, L53A
notes: Residue 52 is already alanine; not shown: glutathione S-transferase (GST) moiety of vector pGEX-2T, N-terminal fusion partner
B9: no binding [10].
